The source of these data is patent publication CN114621343A.

The term Kd denotes a measure of binding affinity in units of concentration. As a reminder, the koff is the first-order rate constant of dissociation. Low values mean a long-lived complex, high ones a short-lived complex. As a reminder, the kon is the rate constant with which the complex forms. Lower therefore signals slower complex formation.

In experiment [1] the target is JEV病毒抗原 (JEV Beijing-1株) (Japanese encephalitis virus, Beijing-1 strain). Kind of experiment: cell-based or functional assay.
Experiment [2] addresses JEV包膜E蛋白 (Japanese encephalitis virus (strain not stated)). Kind of experiment: SPR, Biacore T200; 2G1 captured on CM5 chip, E protein as analyte. Background: SPR reads the build-up and loss of mass on a sensor chip optically.

B1: 乙型脑炎病毒鼠源性单克隆抗体2G1 (antibody, V domains shown)
VH: DVQLQESGLDRVKPSQSLSLTCTVTGYSIISGYSWHWIRQFPGKKLEWMGYIHYSGSATYSPSLKSRISITRDTSKNQFFLQLNSVTTEDTATFYCARGDGSSPYYGMDHWGQGTSVTVSS
VL: DIVLTQSPPSLAVSLGQRATISCRASESVEYSGTGLIHWYQQKPGQPPKLLIYAASSVESGVPARFSGSGSGTDFSLNIHPVEDDDLALYFCQQSRKLPWTFGGGSKLEINR
In experiment [1], B1 displayed a 半数中和浓度(Neut50) of 0.149 µg/mL. In experiment [2], this molecule displayed a Kd of 16.5 nM, a koff of 7.06e-05 s⁻¹ and a kon of 4270 M⁻¹ s⁻¹.
